Data taken from the supplement of paper PMC10567573.
± gives the standard deviation.

Assay: protein stability index of a GFP-peptide fusion (GPS, HEK-293T) (PSI 1-6); higher = more stable
Details: c terminus: a fixed tail appended
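Note: 24-mer peptide tiles fused after GFP, lentivirally expressed, FACS-sorted into six equal bins by GFP/DsRed ratio, decoded by Illumina sequencing, PSI is the read-weighted mean bin number.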

Sequence | protein stability index (treatment: DMSO) | protein stability index (treatment: MLN4924 1 uM, 8 h)
PIRNRAFYMEEGVPYCERDYEKMF [PDLIM7] | 3.3 ± 0.31 | 3.43 ± 0.34
PKCSCGQLAAVHLSKSRTDYQPTQ [RNF180] | 2.55 ± 0.17 | 2.63 ± 0.35
PKGSKGKEKDSPFKPKLYKGDRGL [RBBP5] | 3.86 ± 0.89 | 4.34 ± 0.46
PKTVPSHVFSELWDLSEAWMQANY [ELOA2] | 2.6 ± 0.26 | 2.56 ± 0.41
PLCNFNIIESFTELARIVLLRHRM [RAB40A] | 2.6 ± 0.21 | 2.87 ± 0.79
PLCNFNVIESFTELSRIVLMRHGM [RAB40C] | 2.94 ± 0.45 | 2.73 ± 0.41
PLESIDHSVTGFLCEPDPVHFSEA [ALG2] | 4.48 ± 0.15 | 4.48 ± 0.025
PLHELITMNRRVCVLMLLAAWIGG [OR4A15] | 2.84 ± 0.27 | 2.92 ± 0.26
PLRAAHRRFNFDTDRPLLSTLEES [SMG5] | 3.94 ± 0.14 | 3.94 ± 0.18
PLRLFLIIANTMAFQNDVYEWARD [SCD] | 2.75 ± 0.61 | 2.87 ± 0.61
PLRNDVDKRGETTSASLLNAGLSH [SLC2A12] | 4.55 ± 0.32 | 4.66 ± 0.22
PLRVDLILENTSKVPAPKDVLAHQ [NOP53] | 3.28 ± 0.036 | 3.5 ± 0.29
PLSPAFFGEDGIFRHDRLRFRDFV [PBXIP1] | 2.77 ± 0.16 | 2.91 ± 0.39
PLYTLIDVLKYSYVRLVCKDVRAP [ZSWIM9] | 2.84 ± 0.25 | 3.02 ± 0.63
PPLEDFEVLDGVEDAEGEEEEEEE [FKBP8] | 5.69 ± 0.27 | 5.61 ± 0.34
PPTQLEVNLEEIPGEGLLISWAFT [C2CD2L] | 2.75 ± 0.41 | 3.01 ± 0.5
PPVMPGMPPGLHHQRKYTQSFCGE [ZNF207] | 3.76 ± 0.15 | 3.75 ± 0.14
PQLSPGSGTPQAGTPSPSRSRDSN [RTN2] | 5.2 ± 0.14 | 5.27 ± 0.18
PQQQHHKAKRNRTCRPPSSSESSS [ANKRD17] | 4.86 ± 0.16 | 4.92 ± 0.29
PRAGKEESGVSVSNSQPTNESHSI [SLC29A1] | 5.33 ± 0.25 | 5.26 ± 0.27
PRIVEMKKGSNGYGFYLRAGSEQK [PDZK1] | 3.53 ± 0.36 | 3.65 ± 0.54
PRPQSEESWDEEDKRNYPSLELDK [CHGB] | 5.52 ± 0.25 | 5.44 ± 0.25

Sequence | protein stability index (treatment: DMSO) | protein stability index (treatment: MLN4924 1 uM, 8 h)
PSDFFIGAVIEVFGHRFIILDTDE [EFHC1] | 2.32 ± 0.43 | 2.31 ± 0.36
PSKTYPAFLEPDETFIVPDSFLVA [SPSB1] | 2.39 ± 0.33 | 2.45 ± 0.15
PSLEDISCNTWPSMPSYSSCTVTT [TBX5] | 3.18 ± 0.21 | 3.41 ± 0.24
PSRKYISTKAIPEKYGAVREVILK [ZBED1] | 2.87 ± 0.18 | 2.92 ± 0.34
PTPAKRRSSALWSEMLDITMKESL [NET1] | 2.71 ± 0.5 | 3.15 ± 0.48
PTPTSLEVSSPPDTTEEVDHKPKL [PDZK1] | 5.51 ± 0.18 | 5.54 ± 0.38
PVCSALLDPVLQAPGTGPAQTELL [FANCE] | 4.2 ± 0.12 | 4.37 ± 0.12
PVLGSSSGAGHGSGSGSGPGCGSV [SPAG8] | 4.8 ± 0.36 | 4.92 ± 0.49
PVPPPSYFATFYSCTPRMNRRMVG [FAM189A2] | 2.43 ± 0.28 | 2.43 ± 0.33
PVTERQIEREHLIQLRRWQETRGE [TBC1D10A] | 4.25 ± 0.14 | 4.33 ± 0.18
PVVKALFGASAAGGLSPVTNLTVT [CDC25A] | 2.61 ± 0.24 | 2.65 ± 0.2
PYTRSIQILKDTKSITSAMNELQH [TPH1] | 2.61 ± 0.22 | 2.71 ± 0.16
QAQDEVEQERRLSEARLSQRDLSP [FCHSD1] | 5.46 ± 0.28 | 5.31 ± 0.24
QARAELTAQHQRRLAAIAQEKDQE [FBF1] | 5.43 ± 0.23 | 5.2 ± 0.49
QAVSAPGILNRPPAPTATVPAPQP [ZNF207] | 4.76 ± 0.17 | 4.91 ± 0.17
QDSPLDLTVRKSQSEPSEQDGVLD [LCOR] | 5.42 ± 0.32 | 5.35 ± 0.37
QELIETNQQLRNELQLEQSRAANQ [CEP70] | 5.122 ± 0.01 | 5.05 ± 0.26
QEYFERHRWPPVWYLKEEDHYQRV [RHOBTB1] | 3.08 ± 0.24 | 3.08 ± 0.1
QFALTNGDPLNCHSYLSGYISLLL [NR2F2] | 2.57 ± 0.57 | 2.28 ± 0.3
QFRVIGPRHPIRALVGDEVELPCR [MOG] | 3.63 ± 0.31 | 3.64 ± 0.45
QFSDEVEPATPEEGEPATQRQDPA [GAGE1] | 5.6 ± 0.11 | 5.57 ± 0.096
QGDPKGEMAATPAGFAQLTHLLMG [HDAC6] | 3.1 ± 0.16 | 3.06 ± 0.14

Sequence | protein stability index (treatment: DMSO) | protein stability index (treatment: MLN4924 1 uM, 8 h)
QGGSLPSEEKGHPQEESEESNVSM [CHGB] | 5.59 ± 0.24 | 5.53 ± 0.25
QGPGGDEDDDEEDTDKLLNSASDP [PSD2] | 5.59 ± 0.26 | 5.54 ± 0.21
QIITSLVFHLPFYSSNQLHHFFCD [OR10K2] | 2.8 ± 0.094 | 3.02 ± 0.21
QKEVLPSMRKIVATWMLEVCEEQK [CCND1] | 3.01 ± 0.27 | 3 ± 0.3
QKIQFKRETASLKLLPHQPRIVEM [PDZK1] | 2.54 ± 0.39 | –
QKTSRSSSIPCSGSLDGRELSRQV [PPEF2] | 4.32 ± 0.23 | 4.48 ± 0.42
QLGRALTAHLYSLLQTQHALGDAF [ARFIP2] | 3.25 ± 0.2 | 3.47 ± 0.57
QLKIRKSNQIPTEVRSKAEEVVSF [FUNDC2] | 3.9 ± 0.45 | 3.88 ± 0.25
QLQCSPAELQAELLHSQARLAELE [FBF1] | 3.88 ± 0.41 | 3.98 ± 0.26
QLRFQHSQDVSDCYLELFPAHLYF [PLEKHN1] | 2.32 ± 0.54 | 2.27 ± 0.28
QLTEKLARVNENLARKIASRNEFD [SSNA1] | 2.85 ± 0.18 | 3.24 ± 0.39
QMPKFDLGPLLSEPLVLYNQNLSN [MYOZ1] | 3.15 ± 0.1 | 3 ± 0.11
QPKKNNVMARTRLVVPNKGYSSLD [FAM219A] | 3.85 ± 0.3 | 4.07 ± 0.27
QPRGGVSSRIEQGEWGGRHPSWPW | 2.99 ± 0.44 | 3 ± 0.68
QQELETLPTTKMAQTNPTPGSLGP [CRYBA1] | 5.15 ± 0.1 | 5.09 ± 0.13
QQFRADPSTASLLLCPGGLDHKLN [TIAF1] | 3.48 ± 0.28 | 3.58 ± 0.34
QRALHKYSLMKRQMMSATAQNREP [SNX8] | 3.24 ± 0.29 | 3.32 ± 0.18
QSFREQEEPSNKRVRPLARVTSLA [NET1] | 4.21 ± 0.17 | 4.23 ± 0.097
QSSHYLQWILDKQDLLKERQKDLK [CCNC] | 2.87 ± 0.36 | 3.16 ± 0.27
QTPILEGRSGPGCAVLDDSIYLVG [KLHL14] | 2.7 ± 0.23 | 2.63 ± 0.28
QVLNETRNQYEALVETNRREVEQW [KRT33B] | 4.24 ± 0.43 | 4.5 ± 0.17
